Columns and labels:
[1] = molecular target: T1, gH/gL/UL128/UL130/UL131A pentamer complex expressed from MVA-PC in BHK-21 cells (human cytomegalovirus, UniProt P12824 24-743; P16832 31-278; P16837 28-171; P16772 1-214; F5HET4 19-129); experiment: FC competition, MVA-PC BHK-21; unlabelled row Ab; competitor: biotinylated 18F10
T1 construct: whole, on cells

[2] = molecular target: T1, gH/gL/UL128/UL130/UL131A pentamer …; experiment: FC competition, MVA-PC BHK-21; unlabelled row Ab; competitor: biotinylated 54E11
[3] = molecular target: T2, UL131A expressed from MVA in BHK-21 cells (human cytomegalovirus, UniProt F5HET4 19-129); experiment: intracellular FC, MVA-infected BHK-21
T2 construct: whole, on cells
Description: (§1) NAb subunit specificity was evaluated by staining BHK-21 cells infected with different MVA recombinants. One or more vectors were used to co-infect BHK-21 at an MOI of 5. […] Four hours post infection cells were fixed and permeabilized using Cytofix/Cytoperm solution (BD Biosciences). NAbs (1 mg/ml) were diluted 1:500 in perm/wash buffer (BD) and added to the cells for 1 hour at 4° C. […] Cells were washed again and resuspended in PBS/0.1% BSA. Fifteen thousand events were collected using the Gallios Flow Cytometer (Beckman Coulter, Miami, Fla., USA) and analyzed with FlowJo Software (Tree Star, Ashland, Oreg., USA). Uninfected cells and cells infected with MVA-Venus were used as controls. GFP expression was analyzed for confirming MVA infection since all the constructs contain a GFP expression cassette (36, 62).
(§2) In order to determine the antigen specificity of the vaccine-derived NAbs, intracellular flow cytometry (FC) staining of permeabilized BHK-21 cells infected with MVA expressing single subunits or combinations of two or more subunits of the PC was evaluated.

[4] = molecular target: T3, gH/gL/UL131A co-expressed from MVA in BHK-21 cells (human cytomegalovirus, UniProt P12824 24-743; P16832 31-278; F5HET4 19-129); experiment: intracellular FC, MVA-infected BHK-21
T3 construct: whole, on cells
Description: as §1, §2

[5] = molecular target: T4, gH/gL/UL130/UL131A co-expressed from MVA in BHK-21 cells (human cytomegalovirus, UniProt P12824 24-743; P16832 31-278; P16772 1-214; F5HET4 19-129); experiment: intracellular FC, MVA-infected BHK-21
T4 construct: whole, on cells
Description: as §1, §2

[6] = molecular target: T5, UL130/UL131A co-expressed from MVA in BHK-21 cells (human cytomegalovirus, UniProt P16772 1-214; F5HET4 19-129); experiment: intracellular FC, MVA-infected BHK-21
T5 construct: whole, on cells
Description: as §1, §2

[7] = molecular target: T6, UL130 expressed from MVA in BHK-21 cells (human cytomegalovirus, UniProt P16772 1-214); experiment: intracellular FC, MVA-infected BHK-21
T6 construct: whole, on cells
Description: as §1, §2

[8] = molecular target: T7, gH/gL/UL130 co-expressed from MVA in BHK-21 cells (human cytomegalovirus, UniProt P12824 24-743; P16832 31-278; P16772 1-214); experiment: intracellular FC, MVA-infected BHK-21
T7 construct: whole, on cells
Description: as §1, §2

[9] = molecular target: T8, gH/gL co-expressed from MVA in BHK-21 cells (human cytomegalovirus, UniProt P12824 24-743; P16832 31-278); experiment: intracellular FC, MVA-infected BHK-21
T8 construct: whole, on cells
Description: as §1, §2

[10] = molecular target: T9, gH expressed from MVA in BHK-21 cells (human cytomegalovirus, UniProt P12824 24-743); experiment: intracellular FC, MVA-infected BHK-21
T9 construct: whole, on cells
Description: as §1, §2

[11] = molecular target: gH/gL/UL128/UL130/UL131A pentamer complex (PC) of HCMV strain TB40/E virus (human cytomegalovirus strain TB40/E); experiment: cell-based or functional assay
[12] = molecular target: gH/gL/UL128/UL130/UL131A pentamer complex (PC) of HCMV strain TR virus (human cytomegalovirus strain TR); experiment: cell-based or functional assay
[13] = molecular target: T1, gH/gL/UL128/UL130/UL131A pentamer …; experiment: FC competition, MVA-PC BHK-21; unlabelled row Ab; competitor: biotinylated 13B5
KLH-K15M = molecular target: T10, KLH-K15M (human cytomegalovirus); experiment: ELISA with KLH-coupled peptides (FIG. 11A)
T10 peptide: KHKRLDVCRAKMGYM

KLH-K14CS = molecular target: T11, KLH-K14CS; experiment: ELISA with KLH-coupled peptides (FIG. 11A)
T11 peptide: KRLDVSRAKMGYMC

KLH-K16CS = molecular target: T12, KLH-K16CS; experiment: ELISA with KLH-coupled peptides (FIG. 11A)
T12 peptide: KHKRLDVSRAKMGYMC

[14] = molecular target: T1, gH/gL/UL128/UL130/UL131A pentamer …; experiment: FC, biotinylated NAb titrated on MVA-PC-infected BHK-21 (cell surface PC)
[15] = molecular target: T1, gH/gL/UL128/UL130/UL131A pentamer …; experiment: FC competition, MVA-PC BHK-21; unlabelled row Ab; competitor: biotinylated 21F6
[16] = molecular target: T1, gH/gL/UL128/UL130/UL131A pentamer …; experiment: FC competition, MVA-PC BHK-21; unlabelled row Ab; competitor: biotinylated 1B2
[17] = molecular target: T1, gH/gL/UL128/UL130/UL131A pentamer …; experiment: FC competition, MVA-PC BHK-21; unlabelled row Ab; competitor: biotinylated 12E2

B1: 13B5 (antibody, V domains shown)
VH: QVTLKESGPGILKPSQTLSLTCSFSGFSLTTSGLGVGWIRQPSGKGLEWLAHIWWDDDKYFNPSLRNQLTISKDTSRNQVFLEITSVTTADTATYYCVRSLYDYDEGYYFDSWGQGTTLTVSS
VL: EIVMIQSPATLSVNPGDRVSLSCRASQSISDYLHWYQQKSHESPRLLIKYASQSISGIPSRFSGSGSGSDFTLSINSVEPEDVGVYYCQNGHTFPPTFGGGTKLEIK
notes: also called NAb 13B5; 1365
For B1, the “Binding Inhibition (%)” value [1] was 0%, the “Binding Inhibition (%)” value [2] was 0% and the binding result [3] was “no binding”. B1: no binding [4]; no binding [5]; no binding [6]. B1: no binding [7]; no binding [8]; no binding [9]. The binding result [10] was “no binding”, the “IC50, inhibition of TB40/E cell-to-cell spread in ARPE-19” value [11] was 22 µg/mL and the “IC50, neutralization of TB40/E infection of ARPE-19” value [11] was 0.015 µg/mL. For the same binder, the “IC50, neutralization of TB40/E infection of CTB” value [11] was 0.0998 µg/mL, the “IC50, neutralization of TB40/E infection of HUVEC” value [11] was 0.012 µg/mL and the “IC50, neutralization of TB40/E infection of MRC-5” value [11] was > 25 µg/mL. The “IC50, inhibition of TR cell-to-cell spread in ARPE-19” value [12] was 21 µg/mL, the “IC50, neutralization of TR infection of ARPE-19” value [12] was 0.0199 µg/mL and the “IC50, neutralization of TR infection of HUVEC” value [12] was 0.0077 µg/mL. The “IC50, neutralization of TR infection of MRC-5” value [12] was > 25 µg/mL, the “Binding Inhibition (%)” value [13] was 100% and the binding result (KLH-K15M) was “binds”. For the same binder, the binding result (KLH-K14CS) was “binds”, the binding result (KLH-K16CS) was “binds” and the EC50 [14] was 0.68 nM. The “Binding Inhibition (%)” value [15] was 0%, the “Binding Inhibition (%)” value [16] was 0% and the “Binding Inhibition (%)” value [17] was 0%.
